Data published in the supplement of paper PMC10126150.
± gives the standard deviation of the averaged measurements.

Test system: ATP
Test: switch fluorescence ratio, 500 uM ATP over buffer (Cy3 cluster intensity, sum of 5 cycles each) (fold (ratio)); higher = stronger signal-on switching upon ATP binding; sequences stand for … in TCGTCGGCAGCGTCAGATGTGTATAAGAGACAGTTTTTTTTTTTTTTTTTTTTTTTTT…TC
Details: aptamer strand: ATP DNA aptamer (quencher-CACCTGGGGGAGTATTGCGGAGGAAGG + anchor), 100 nM annealed; ATP concentration: 500 uM
Summary of the method: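 Exposure to 500 uM ATP lasted 15 min at 22 °C before imaging, and a selection-buffer image was taken beforehand, for Cy3-labelled switching-strand clusters on a modified Illumina MiSeq flow-cell annealed to 100 nM quencher-labelled ATP aptamer. Five buffer/ATP cycles were run with NaOH stripping and re-annealing between them. The fluorescence ratio per cluster is summed target-cycle over summed buffer-cycle Cy3 intensity, averaged per switch-domain sequence. Clusters outside 100-1000 RFU were excluded.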

| Sequence | switch fluorescence ratio |
| --- | --- |
| GGGTTGGAAG | 1.02 ± 0.067 |
| TCCCTTTAGT | 1.01 ± 0.024 |
| CGGTGTAGGG | 0.99 ± 0.03 |
| GTCCGGGGGG | 1.26 ± 0.015 |
| CGAGAGGGGT | 1.02 ± 0.044 |
| ACGCGAGTAT | 1.05 ± 0.019 |
| ACTGCAGAGG | 1.08 ± 0.034 |
| ATGCGTGGTA | 1.02 ± 0.041 |
| TGGGGGCCTG | 0.99 ± 0.033 |
| TTGTATATAT | 1.49 ± 0.81 |
| TGGGCGCAGT | 0.986 ± 0.012 |
| TAGCGATTAG | 1.01 ± 0.036 |
| GTTTTGTAAG | 1 ± 0.023 |
| TGTCGCGTAT | 0.992 ± 0.013 |
| GCGTAATGGT | 1.095 ± 0.0043 |
| GTAGTTAATG | 0.984 ± 0.038 |
| TATCAGGGGA | 1 ± 0.075 |
| GGGTCAAGGG | 0.979 ± 0.019 |
| GATTGAGATT | 0.981 ± 0.033 |
| AAAACCCGA | 1.01 ± 0.051 |
| CATCTTGAAT | 1 ± 0.046 |
| TGACTTTTGT | 0.98 ± 0.0015 |
| TTTAAGGAGA | 0.993 ± 0.037 |
| ATAGGTTACG | 1.21 ± 0.25 |
| AGGATTTATG | 0.962 ± 0.021 |

| Sequence | switch fluorescence ratio |
| --- | --- |
| TTCTAAACGT | 1.06 ± 0.078 |
| TTCCAATGTG | 1.01 ± 0.029 |
| TTATTGTGTT | 1.01 ± 0.028 |
| AGGAATAAAA | 0.961 ± 0.1 |
| TGTTTTCGGA | 1.01 ± 0.012 |
| TTTTTACGTT | 1.03 ± 0.021 |
| GCGAGAGAGT | 0.99812 ± 0.0009 |
| AGCGAAGGGG | 1.01 ± 0.047 |
| GGATACGTTT | 0.994 ± 0.012 |
| GGGGGGTCGG | 1 ± 0.024 |
| CTGGGACTGA | 1.02 ± 0.03 |
| CATGGGGGGG | 0.982 ± 0.043 |
| ACAGGAGGTG | 1.13 ± 0.035 |
| TCGTGGGAGC | 1.014 ± 0.0089 |
| GTTTTTGAAT | 0.992 ± 0.033 |
| TAGAAAAATT | 0.993 ± 0.015 |
| CAGGGCGTTT | 1.01 ± 0.028 |
| AAAGGTCGAC | 0.973 ± 0.021 |
| CGACCGTAAA | 1.5 ± 0.14 |
| GGCAATTCAG | 1.07 ± 0.019 |
| CTTGTGAACG | 0.993 ± 0.036 |
| CCGGGGACCC | 1.13 ± 0.08 |
| TGCGAGGGCA | 1.02 ± 0.0087 |
| AAGTGGGTCG | 0.9408 ± 0.0023 |
| CTGGAACGTC | 0.989 ± 0.026 |

| Sequence | switch fluorescence ratio |
| --- | --- |
| GAAGGGGGGG | 0.999 ± 0.042 |
| AGCAAGGGCA | 1.0103 ± 6.2e-05 |
| TCTCAGGTTG | 1.072 ± 0.0058 |
| GCAGCGTTCT | 1.04 ± 0.069 |
| ATAGATAGGT | 0.99 ± 0.034 |
| GGGATTAGGA | 0.995 ± 0.052 |
| TTTCTCGGAG | 1.08 ± 0.084 |
| AGAGTAATCG | 0.983 ± 0.07 |
| GGGCCACCGA | 0.975 ± 0.0041 |
| CGCATAGGCC | 1.77 ± 0.2 |
| CTAGGGGGCA | 0.982 ± 0.037 |
| TAAGGGAGGT | 0.996 ± 0.044 |
| CGGTGATCGT | 1.02 ± 0.015 |
| ATTAGTAGGG | 0.9807 ± 0.0041 |
| TTGTAGCTGT | 1.12 ± 0.13 |
| GGGAGAGGTT | 0.987 ± 0.032 |
| TCTCTGAGGA | 0.985 ± 0.013 |
| TCGAAATCAC | 1.32 ± 0.046 |
| TATGGAAGCC | 0.982 ± 0.034 |
| GGGCAGGGTA | 0.9883 ± 0.0076 |
| GAGGTTTGTT | 0.979 ± 0.023 |
| TCATGAACAG | 0.993 ± 0.014 |
| AGGGGCTGAA | 0.986 ± 0.042 |
| AAATAATTTT | 1.01 ± 0.027 |
| TTAAGGTTAA | 1 ± 0.029 |

| Sequence | switch fluorescence ratio |
| --- | --- |
| TCGCGCCTTG | 1.01 ± 0.021 |
| GAAATTTTTG | 0.985 ± 0.029 |
| TAAATGGTTG | 0.9863 ± 0.0094 |
| TCGAATATTG | 0.9849 ± 0.004 |
| TCGTTGAGGC | 1.037 ± 0.0072 |
| GCCATTTGAC | 1.02 ± 0.042 |
| TTTATTACAT | 0.996 ± 0.014 |
| GCCATCGATC | 1.017 ± 0.0079 |
| GGGGTTCATG | 0.9675 ± 0.006 |
| TTGGAGTTG | 1.02 ± 0.048 |
| CGCGTTAGGG | 1.03 ± 0.011 |
| TATAATTGGT | 0.9616 ± 0.007 |
| GCGAGGAATA | 1.2 ± 0.079 |
| GCTTAGTGGT | 0.981 ± 0.025 |
| TAGAAACGGG | 1.02 ± 0.031 |
| AAATATTTCG | 1.02 ± 0.03 |
| GGGATCGGTG | 0.995 ± 0.016 |
| GCTATTATTT | 0.9845 ± 0.0027 |
| CAGGGGAGAG | 0.999 ± 0.027 |
| AATCGGATAA | 1.05 ± 0.019 |
| GCGGCTTCTC | 1.018 ± 0.0072 |
| AATTGTACGG | 1.04 ± 0.013 |
| TGGCGCACAA | 1.07 ± 0.013 |
| GGCGTCGACG | 1.02 ± 0.11 |
| ACGGGGCCGC | 0.994 ± 0.045 |

| Sequence | switch fluorescence ratio |
| --- | --- |
| GGGGTGCAGC | 1.05 ± 0.02 |
| ATGTTATATG | 1.004 ± 0.0036 |
| CGTCGAGGCG | 0.971 ± 0.035 |
| CGGGGGTTTG | 1.01 ± 0.031 |
| GTTGTATTGT | 0.999 ± 0.019 |
| AGCAATAGTT | 2.97 ± 0.051 |
| CAGCACAGAT | 1.015 ± 0.0019 |
| ATCGATTTCG | 0.975 ± 0.017 |
| TTGGGGTCGT | 0.974 ± 0.03 |
| ATTTAGTGTT | 1 ± 0.024 |
| TAGGAAGGTA | 1.01 ± 0.018 |
| TTTGGGGTGG | 0.974 ± 0.031 |
| CGCGGCGTTC | 1.023 ± 0.0057 |
| GGGGTAAGAT | 0.963 ± 0.054 |
| CTAATTGGCG | 1.02 ± 0.04 |
| AGGTTGTGGT | 1.01 ± 0.016 |
| TCGCGTGGTA | 0.989 ± 0.038 |
| ACCTTGGGAA | 1.01 ± 0.017 |
| CAATTTTGCT | 0.98 ± 0.019 |
| TCAAGTTAGT | 0.985 ± 0.026 |
| CGTGATGATG | 0.982 ± 0.06 |
| ACCTGGAATT | 1.01 ± 0.031 |
| TGAGCGACTT | 1.005 ± 0.0095 |
| GCACATAGGG | 1.02 ± 0.011 |
| GGGGCGACGT | 0.977 ± 0.023 |

| Sequence | switch fluorescence ratio |
| --- | --- |
| TGTGTTTAAA | 0.967 ± 0.021 |
| TTCGGGCTAG | 1.013 ± 0.0052 |
| GCTTGGGGGG | 1.02 ± 0.029 |
| GAGGCAGGGA | 1.19 ± 0.16 |
| TCGGTGATTG | 0.991 ± 0.016 |
| GGGGTGTAAG | 0.992 ± 0.02 |
| TTGCGGGGGA | 1.01 ± 0.028 |
| GCTGGAACCG | 1.08 ± 0.022 |
| GGATTCATTT | 1.054 ± 0.0087 |
| TTTTTGAAAA | 1.018 ± 0.0055 |
| GGGACCAGAT | 1.01 ± 0.033 |
| AGATAGGCGT | 0.9959 ± 0.0056 |
| TTGGGTTAGT | 1.01 ± 0.019 |
| TTCTGACGG | 1.48 ± 0.55 |
| GATCACTGTT | 0.996 ± 0.062 |
| CGAATTTTAT | 0.976 ± 0.039 |
| GGATGCGTG | 0.985 ± 0.059 |
| CTTACGTGCC | 1 ± 0.036 |
| ATTTAATTCT | 0.9981 ± 0.0077 |
| AAATAACCGA | 1.08 ± 0.02 |
| TGGGGTTGCC | 0.96 ± 0.026 |
| AAAGATAACT | 1.024 ± 0.0098 |
| GAATTGTTGT | 1 ± 0.02 |
| GTGGACAGGG | 1 ± 0.013 |
| ATCTAGCAAC | 1.36 ± 0.049 |

| Sequence | switch fluorescence ratio |
| --- | --- |
| GGCGTTTTGA | 1.04 ± 0.021 |
| TAGGTTTTGG | 0.989 ± 0.035 |
| TGGATTAGGG | 1 ± 0.023 |
| GGCAGGTTTT | 0.996 ± 0.035 |
| AAATGATCTA | 1.01 ± 0.029 |
| CTGGGGTACT | 1.08 ± 0.056 |
| ATGTGGGGTG | 1.06 ± 0.053 |
| CGTTGGAAGC | 0.982 ± 0.018 |
| TACAGGCTGA | 0.9858 ± 0.0046 |
| CTTTTAATTG | 0.977 ± 0.037 |
| ACTTGCACGT | 1.175 ± 0.0094 |
| TTTTGGTACT | 0.984 ± 0.027 |
| ACAGGGAAAT | 0.994 ± 0.038 |
| TGGGATTAGA | 1.021 ± 0.008 |
| GTTTCCAGGG | 1.16 ± 0.023 |
| GGACGATGGG | 0.995 ± 0.045 |
| ACTCATGGCA | 1.09 ± 0.046 |
| ATTGCGTTAT | 1.03 ± 0.018 |
| GGAACGGGGC | 0.961 ± 0.06 |
| TCCCAATGCT | 4.02 ± 0.55 |
| GGTGGTTGCA | 1 ± 0.024 |
| ACCGCATAGT | 2.57 ± 0.099 |
| GTTTGGTTTT | 0.99 ± 0.014 |
| CAAAAGCGAG | 1.014 ± 0.0055 |
| AAAAGTGCCA | 0.999 ± 0.027 |

| Sequence | switch fluorescence ratio |
| --- | --- |
| CGGGGGGGCC | 0.99 ± 0.042 |
| GGACCGGACG | 1.106 ± 0.0093 |
| GATGAATGTT | 0.9766 ± 0.0041 |
| TTTATAGTTA | 0.979 ± 0.039 |
| ACCAGGCCGC | 1.08 ± 0.03 |
| TCAGGAATGG | 1.055 ± 0.0069 |
| ACCTTTAACT | 1.03 ± 0.017 |
| GGGGAGCGTC | 1.01 ± 0.032 |
| TTTTATGAGC | 1.03 ± 0.045 |
| AAACGGCTCT | 0.967 ± 0.031 |
| GCGGAGGCGT | 0.984 ± 0.01 |
| CGAAGAGGAG | 0.981 ± 0.011 |
| GGGTTGGTTG | 0.9929 ± 0.0052 |
| TAATGGGGAT | 0.989 ± 0.022 |
| AGGATGGTAC | 1.03 ± 0.015 |
| TTTTTGTTCG | 0.998 ± 0.015 |
| ACAAGGGCGG | 1.01 ± 0.015 |
| AAATCGAGCG | 0.969 ± 0.025 |
| GCAGATGGTT | 1.01 ± 0.015 |
| CCATGCAGGC | 1.28 ± 0.13 |
| GCTATTTTTT | 0.987 ± 0.022 |
| TGTTTTATAT | 1.01 ± 0.021 |
| TTAGCCACTT | 1.06 ± 0.066 |
| AGGGACACTA | 1.07 ± 0.028 |
| GCTGTTTGGG | 0.997 ± 0.014 |
